Results as given in paper doi:10.1101/2023.06.21.546012 (bioRxiv, 2023).

T1: Tom40 (S. cerevisiae (endogenous in the …, UniProt P23644 1-387))
T1 sequence: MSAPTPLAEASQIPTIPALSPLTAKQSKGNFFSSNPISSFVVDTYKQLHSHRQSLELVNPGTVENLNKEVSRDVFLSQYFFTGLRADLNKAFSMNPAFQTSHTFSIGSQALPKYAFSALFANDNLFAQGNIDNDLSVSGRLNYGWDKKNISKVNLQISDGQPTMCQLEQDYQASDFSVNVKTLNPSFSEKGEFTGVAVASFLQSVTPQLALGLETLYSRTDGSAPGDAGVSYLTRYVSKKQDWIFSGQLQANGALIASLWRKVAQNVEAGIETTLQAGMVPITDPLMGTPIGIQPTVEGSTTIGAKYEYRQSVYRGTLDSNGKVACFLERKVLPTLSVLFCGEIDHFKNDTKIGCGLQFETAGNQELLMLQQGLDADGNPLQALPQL

B1: Tom22 with a C-terminal His10 tag (natural protein)
chain: MVELTEIKDDVVQLDEPQFSRNQAIVEEKASATNNDVVDDEDDSDSDFEDEFDENETLLDRIVALKDIVPPGKRQTISNFFGFTSSFVRNAFTKSGNLAWTLTTTALLLGVPLSLSILAEQQLIEMEKTFDLQSDANNILAQGEKDAAATAN
B2: Tom7 (natural protein)
chain: MSFLPSFILSDESKERISKILTLTHNVAHYGWIPFVLYLGWAHTSNRPNFLNLLSPLPSV
B3: Tom6 (natural protein)
chain: MDGMFAMPGAAAGAASPQQPKSRFQAFKESPLYTIALNGAFFVAGVAFIQSPLMDMLAPQL

Biological target: T1, Tom40
Assay: cryo-EM structure

Row | Binder | binding result
1 | B1 | binds
2 | MFGLPQQEVSEEEKRAHQEQTEKTLKQAAYVAAFLWVSPMIWHLVKKQWK (natural protein) [Tom5] | binds
3 | B2 | binds
4 | B3 | binds
